Experiment [1] deals with T1, calcium-signal modulating cyclophilin ligand (CAML) (Homo sapiens, UniProt P49069).
T1 construct: made in house; host or cells: yeast (two-hybrid prey from a human fetal brain cDNA library); E. coli (pull-down); 293T cells (transfected, co-precipitation)
T1 sequence (P49069 1-296): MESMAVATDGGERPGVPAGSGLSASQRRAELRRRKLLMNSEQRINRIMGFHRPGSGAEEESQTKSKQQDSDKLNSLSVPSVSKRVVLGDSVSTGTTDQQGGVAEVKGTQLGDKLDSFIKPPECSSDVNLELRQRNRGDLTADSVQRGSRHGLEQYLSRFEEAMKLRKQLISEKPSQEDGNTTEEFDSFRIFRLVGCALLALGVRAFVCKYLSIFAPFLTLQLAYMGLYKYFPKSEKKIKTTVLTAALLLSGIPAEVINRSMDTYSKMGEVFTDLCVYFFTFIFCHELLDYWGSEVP
The experiment in a line: Binding of SITH-1 to host protein (yeast two-hybrid, in vitro pull-down, co-precipitation). The note with it: yeast two-hybrid with human fetal brain cDNA library; GST pull-down; co-precipitation in 293T cells. How it is done:
To study the function of the protein SITH-1, a host protein to which the protein SITH-1 would bind within cells was identified. This was performed by screening of a human fetal brain cDNA library by means of yeast two-hybrid assay with the protein SITH-1 used as a bait.

The test system of experiment [2] is astrocyte-like glial cell line (U373). The experiment in a line: Fluorescent antibody staining of CAML in SITH-1-expressing U373 cells. It is filed as cell-based. The note with it: SITH-1 expressed in U373 vs untreated U373 cells. An excerpt: CAML is a protein that has been reported to show strong expression in lymphocytes and in a brain, and it is known that CAML has ability to increase an intracellular calcium concentration. Thus, in order to see whether the protein SITH-1 would be mediated by CAML to increase the intracellular calcium concentration, both an astrocyte-like glial cell line (U373) in which SITH-1 had been expressed and untreated U373 cells were stained by the fluorescent antibody technique using anti-SITH-1 antibodies and anti-CAML antibodies.

For experiment [3] the test system is unchanged. The experiment in a line: Intracellular calcium concentration measured with Fura2 after thapsigargin stimulation. Format: cell-based. The note with it: SITH-1 transferred via retrovirus vector into U373, thapsigargin (TG) stimulation, vs vector only. Here is the method: In another experiment, two samples were prepared; one sample was prepared by transferring SITH-1 into an astrocyte-like glial cell line (U373) via a retrovirus vector, and the other sample was prepared by introducing only the vector into U373. Each sample was stimulated with thapsigargin (TG), and an intracellular calcium concentration was measured using Fura2.
For orientation: A change in cytosolic calcium serves as a functional read-out for many receptors and channels.

The subject of experiment [4] is mice. The experiment in a line: Tail suspension test. It is filed as in vivo. The note with it: SITH-1 transferred using adenovirus vector, GFAP promoter, injected into brains of newborn mice. Here is the method: (§1) SITH-1 having a glial fibrillary acidic protein (GFAP) promoter linked upstream of its open reading frame was injected into the brains of newborn mice using an adenovirus vector or a retrovirus vector. GFAP is a protein expressed specifically in glial cells such as astrocytes.
(§2) A tail suspension test and a forced swimming test were conducted to evaluate mental disorders; these tests are commonly used to observe patients with depression or manic-depressive illness. Specifically, mice into which SITH-1 was transferred using an adenovirus vector were subjected to a tail suspension test. […] Subsequently, mice into which SITH-1 was transferred using a retrovirus vector were subjected to a forced swimming test.

For experiment [5], the system named is mice. Kind of experiment: Forced swimming test. Format: in vivo. Here is the method: as §1, §2
The test system of experiment [6] is mice. Kind of experiment: Startle response (prepulse inhibition). The note with it: SITH-1 transferred using adenovirus vector. Format: in vivo. How it is done: as §1
The present inventors also measured a prepulse inhibition in order to check for any abnormality in a startle response, which abnormality is to be found in patients with manic-depressive illness and schizophrenia. Specifically, mice into which SITH-1 was transferred using the adenovirus vector were evaluated for a startle response by measuring the prepulse inhibition.

In experiment [7] the test system is mice. The experiment in a line: Motor activity in terms of wheel running activity. It is filed as in vivo. The note with it: vs EGFP control mice. How it is done:
Next, an open reading frame of SITH-1 was linked downstream of a GFAP promoter, and expressed in glial cells of mice using an adenovirus vector; three weeks later, the mice were measured for their motor activity in terms of wheel running activity.
Subsequently, an open reading frame of SITH-1 was linked downstream of a GFAP promoter, and expressed in glial cells of mice using a lentivirus vector; eight weeks later, the mice were measured for their motor activity in terms wheel running activity.

The text below walks through data of US10487118B2, “Factor involved in latent infection with herpes virus, and use thereof” (Virus Ikagaku Kenkyusho Inc., priority 2007, dated 2019).

B1: SITH-1: protein expressed specifically during latent infection with HHV-6; approximately 17.5 kDa, 159 amino acids, SEQ ID NO: 1 (protein)
chain: MGYEEKVSATGKTRLKILACLIVLILAAAITMLTLEIISNQKRTTTDLEAVTVALKHVSTSLASCTESTTSVHTDSVTSQPTKNKESRKKIEGKSPSWVQALTTASGIILLFCIMMIFITCSWTTEKDTEKSEVQSYASSVETLDSLNEAIIPKTEMNV
modifications: Human herpesvirus 6
B1: the “binding to CAML” value in experiment [1] was “bind strongly”. Besides, in experiment [2], the “amount of CAML” value was “more CAML was found than in the untreated U373 cells”. The intracellular calcium concentration result in experiment [3] was “considerably higher”. Also, the immobile time result was “markedly shorter immobile time” in experiment [4]; “longer immobile time” in experiment [5] (retrovirus vector at HIGH titer, vs EGFP control mice); “shorter immobile time” in experiment [5] (retrovirus vector at LOW titer). Further, the prepulse inhibition entry in experiment [6] is given as “markedly lower prepulse inhibition”. Also, the “motor activity (wheel running activity)” value is reported as “motor activity enhanced” in experiment [7] (adenovirus vector, three weeks later) and “motor activity suppressed” in experiment [7] (lentivirus vector, eight weeks later).
